Article doi:10.1101/2024.09.25.614892 (bioRxiv, 2024)
Read-outs that look alike come from different tables or passages of the source.

B3: FliC (flagellin) of Salmonella enterica (natural protein, UniProt P06179 1-495, looked up)
chain: MAQVINTNSLSLLTQNNLNKSQSALGTAIERLSSGLRINSAKDDAAGQAIANRFTANIKGLTQASRNANDGISIAQTTEGALNEINNNLQRVRELAVQSANSTNSQSDLDSIQAEITQRLNEIDRVSGQTQFNGVKVLAQDNTLTIQVGANDGETIDIDLKQINSQTLGLDTLNVQQKYKVSDTAATVTGYADTTIALDNSTFKASATGLGGTDQKIDGDLKFDDTTGKYYAKVTVTGGTGKDGYYEVSVDKTNGEVTLAGGATSPLTGGLPATATEDVKNVQVANADLTEAKAALTAAGVTGTASVVKMSYTDNNGKTIDGGLAVKVGDDYYSATQNKDGSISINTTKYTADDGTSKTALNKLGGADGKTEVVSIGGKTYAASKAEGHNFKAQPDLAEAAATTTENPLQKIDAALAQVDTLRSDLGAVQNRFNSAITNLGNTVNNLTSARSRIEDSDYATEVSNMSRAQILQQAGTSVLAQANQVPQNVLSLLR

How the values were obtained:
Assay in all cases: cryo-EM structure
[1] = biological target: the molecule itself
[2] = biological target: B3
[3] = biological target: the molecule itself; remark: listed apart in the source
[4] = biological target: the molecule itself; remark: listed apart in the source
[5] = biological target: B3; remark: listed apart in the source

B1: FlgL (hook-filament junction protein) of Salmonella enterica (natural protein, UniProt P16326 1-317, looked up)
chain: MRISTQMMYEQNMSGITNSQAEWMKLGEQMSTGKRVTNPSDDPIAASQAVVLSQAQAQNSQYALARTFATQKVSLEESVLSQVTTAIQTAQEKIVYAGNGTLSDDDRASLATDLQGIRDQLMNLANSTDGNGRYIFAGYKTEAAPFDQATGGYHGGEKSVTQQVDSARTMVIGHTGAQIFNSITSNAVPEPDGSDSEKNLFVMLDTAIAALKTPVEGNNVEKEKAAAAIDKTNRGLKNSLNNVLTVRAELGTQLSELSTLDSLGSDRALGQKLQMSNLVDVDWNSVISSYVMQQAALQASYKTFTDMQGMSLFQLNR
[1]
  stoichiometry N: 11 subunits
[2]
  binding result: binds

B2: FlgL (hook-filament junction protein) of Campylobacter jejuni (natural protein, UniProt A0A5T0WDM5 1-750, looked up)
chain: MRITNKLNFTNSVNNSMGGQSALYQISQQLASGLKIQNSYEDASTYIDNTRLEYEIKTLEQVKESTSRAQEMTQNSMKALQDMVKLLEDFKVKVTQAASDSNSQTSREAIAKELERIKESIVQLANTSVNGQYLFAGSQVANKPFDSNGNYYGDKNNINVVTGAGTESPYNIPGWDLFFKADGDYKKQISTNVSFTDNRWDLNKDPDKTKYLTGDSKWQQLIGQGYVKDNSLDADKDFEYDDSKLDFPPTTLYVQGTKPDGTSFKSAVLVKPEDTLEDVMENIGALYGNTPNNKVVEVSMNDSGQIQITDLKQGNNKLDFHAVAFTPQADTKDELKNIIEAANQEGISMNEVTNRVMQAATAAPSNGDITKLNNPVTVTINNQQFTIDLKQTDFIKSKMTDTDGNAANGADYDNVYFEKNGNTVYGNVSQVIKGSNAYATDSTKLSEVMAGDSLNGTTLNLKVNSKGGNSYDVTINLQTSTVSYPDPNNPGQTISFPIMHTNPATGNSGVVTGSNDITYGQINDIIGMFAADKIPTTTIQANNGQINNADYTQIQQLMKDSQATVDVSMDYKGRISVTDKLSSGTNIEISLSDSQSGQFPAPPFTTTSTVQNGPNFSFSANNSLTIDEPNVDIIKDLDSMIDAVLKGNMRADSESENPRNTGMQGALERLDHLADHVSKLNTTMGAYHNTIEGVNTRTSFLSVNVQSIKSNVIDVDYGEAMMNLMQVQLAYQASLKASTTISQLSLLNYM
[3]
  stoichiometry N: 11 subunits

## B3
[1]
  binding result: binds

B4: FliD (flagellar filament cap protein) of Campylobacter jejuni (natural protein, UniProt Q9PHW6 1-642, looked up)
chain: MAFGSLSSLGFGSGVLTQDTIDKLKEAEQKARIDPYTKKIEENTTKQKDLTEIKTKLLSFQTAVSSLADATVFAKRKVVGSISDNPPASLTVNSGVALQSMNINVTQLAQKDVYQSKGLANDGGFVNAQLNGTADLTFFSNGKEYTVTVDKNTTYRDLADKINEASGGEIVAKIVNTGEKGTPYRLTLTSKETGEDSAISFYAGKKDSNGKYQKDINAEKIFDDLGWGLDVSASIDPDKDKKGYGIKDASLHIQTAQNAEFTLDGIKMFRSSNTVTDLGVGMTLTLNKTGEINFDVQQDFEGVTKAMQDLVDAYNDLVTNLNAATDYNSETGTKGTLQGISEVNSIRSSILADLFDSQVVDGTTEDANGNKVNTKVMLSMQDFGLSLNDAGTLSFDSSKFEQKVKEDPDSTESFFSNITKYEDINHTGEVIKTGSLSKYLNSNGGNTNGLEFKPGDFTIVFNNQTYDLSKNSDGTNFKLTGKTEEELLQNLANHINSKGIEGLKVKVESYNQNNVTGFRLNFSGDGSSDFSIKGDANILKELGLSDVNITSKPIEGKGIFSKLKATLQEMTGKDGSITKYDESLTNDIKSLNTSKDSTQAMIDTRYDTMANQWLQYESILNKLNQQLNTVTNMINAANNSNN
[3]
  stoichiometry N: 5 subunits

B5: FlgK (hook-filament junction protein) of Salmonella enterica (natural protein, UniProt P0A1J5 1-553, looked up)
chain: MSSLINHAMSGLNAAQAALNTVSNNINNYNVAGYTRQTTILAQANSTLGAGGWIGNGVYVSGVQREYDAFITNQLRGAQNQSSGLTTRYEQMSKIDNLLADKSSSLSGSLQSFFTSLQTLVSNAEDPAARQALIGKAEGLVNQFKTTDQYLRDQDKQVNIAIGSSVAQINNYAKQIANLNDQISRMTGVGAGASPNDLLDQRDQLVSELNKIVGVEVSVQDGGTYNLTMANGYTLVQGSTARQLAAVPSSADPTRTTVAYVDEAAGNIEIPEKLLNTGSLGGLLTFRSQDLDQTRNTLGQLALAFADAFNAQHTKGYDADGNKGKDFFSIGSPVVYSNSNNADKTVSLTAKVVDSTKVQATDYKIVFDGTDWQVTRTADNTTFTATKDADGKLEIDGLKVTVGTGAQKNDSFLLKPVSNAIVDMNVKVTNEAEIAMASESKLDPDVDTGDSDNRNGQALLDLQNSNVVGGNKTFNDAYATLVSDVGNKTSTLKTSSTTQANVVKQLYKQQQSVSGVNLDEEYGNLQRYQQYYLANAQVLQTANALFDALLNIR
[1]
  stoichiometry N: 11 subunits

B6: FlgE (flagellar hook protein) of Salmonella enterica (natural protein, UniProt P0A1J1 1-403, looked up)
chain: MSFSQAVSGLNAAATNLDVIGNNIANSATYGFKSGTASFADMFAGSKVGLGVKVAGITQDFTDGTTTNTGRGLDVAISQNGFFRLVDSNGSVFYSRNGQFKLDENRNLVNMQGMQLTGYPATGTPPTIQQGANPAPITIPNTLMAAKSTTTASMQINLNSTDPVPSKTPFSVSDADSYNKKGTVTVYDSQGNAHDMNVYFVKTKDNEWAVYTHDSSDPAATAPTTASTTLKFNENGILESGGTVNITTGTINGATAATFSLSFLNSMQQNTGANNIVATNQNGYKPGDLVSYQINNDGTVVGNYSNEQEQVLGQIVLANFANNEGLASQGDNVWAATQASGVALLGTAGSGNFGKLTNGALEASNVDLSKELVNMIVAQRNYQSNAQTIKTQDQILNTLVNLR
[1]
  binding result: binds

B7: FliD (flagellar filament cap protein) of Salmonella enterica (natural protein, UniProt P16328 1-467, looked up)
chain: MASISSLGVGSNLPLDQLLTDLTKNEKGRLTPITKQQSANSAKLTAYGTLKSALEKFQTANTALNKADLFKSTVASSTTEDLKVSTTAGAAAGTYKINVTQLAAAQSLATKTTFATTKEQLGDTSVTSRTIKIEQPGRKEPLEIKLDKGDTSMEAIRDAINDADSGIAASIVKVKENEFQLVLTANSGTDNTMKITVEGDTKLNDLLAYDSTTNTGNMQELVKAENAKLNVNGIDIERQSNTVTDAPQGITLTLTKKVTDATVTVTKDDTKAKEAIKSWVDAYNSLVDTFSSLTKYTAVEPGEEASDKNGALLGDSVVRTIQTGIRAQFANSGSNSAFKTMAEIGITQDGTSGKLKIDDDKLTKVLKDNTAAARELLVGDGKETGITTKIATEVKSYLADDGIIDNAQDNVNATLKSLTKQYLSVSNSIDETVARYKAQFTQLDTMMSKLNNTSSYLTQQFTAMNKS
[4]
  stoichiometry N: 5 subunits
[5]
  binding result: binds

B8: FlgK (hook-filament junction protein) of Campylobacter jejuni (natural protein, UniProt Q0P8E9 1-608, looked up)
chain: MGIFGTLYTGVTGLKASEVQIATTGNNISNANATFYTRQRVVQTTNGYITTGGVQVGTGTAVESIVRLHDEYSYYKLKGASTQLEYTKYMASTLQEIAQRFPDLQNTGILQDLENYNKAWNDFASNPNENATKIALVKASQTLTESVNNTFATLDKIQKKVNDDIKNTVDEINRIGEEIATINKQIYGQEALPTEHANELRDRRDELELTLSKLVSAVASKNEINQDNRLDTTITDPGHQYNLSIEGFSIVDGINFHPLKLDYDDKNKSYSIYYETPDEKVRDLTAKISGGQLGAQLDLRGRNYSKSEGKYEDGIIQGYMDSLDTFAKTMINETNNLYASSAKSSVTSDYLSGLKGDIPLVNYDRTIQPGSFDIVIYDDKGDKKLTKTITIDVNTTMNDIMRQINANTDDNDNKNSNDDVDDHINASFSYDAKTGDGLFQINAKSGFKVAIEDKGTNFAGAFSIGGFFSGTDASDMKVKDSILNDPSTVRASSNGVDSGNDMANKIIQLQYKKVNFYNEDGTIDNLTMEEYYRKLTGKIASDGENNNVVNSSNETLYNSVYSEYQSKSGVNTNEELAALIQYQSSYGAAAKIVSTVDQMLDTLLGLKS
[3]
  stoichiometry N: 11 subunits
